Data reported in patent US20150126710A1 (APOGENIX, published 2015).

How the values were obtained:
TRAIL-Receptor 1-Fc [1] = biological target: T1, TRAIL-Receptor 1-Fc (UniProt O00220 109-239, limits assumed); assay: Streptactin-ELISA, supernatant immobilized, constant concentration of TRAIL-Receptor 1-Fc (FIG. 14A)
T1 construct: Bought from R&D Systems; also called TRAILR1; not shown: Fc part of the bought fusion protein
Protocol: (§1) To determine the binding of receptors to constructed ligands, streptactin-coated 96-well microplates were used. Therefore, supernatants from transiently transfected HEK293 cells, mouse sera or purified proteins were immobilized on streptactin-plates (IBA GmbH) for 1-3 hours in PBS. Samples were diluted in ELISA binding/blocking buffer (PBS, 0.1% Tween-20, 20% SuperBlock T20-PBS (Pierce)). Plates were washed with PBS+0.1% Tween-20 and incubated with mouse-anti-TRAIL antibody (Pharmingen, clone RIK-2), TRAIL-Receptor 1-Fc (R&D Systems), TRAIL-Receptor 2-Fc (R&D Systems), TACI-Fc (R&D Systems) or HVEM-Fc (R&D Systems) for one hour at room temperature. Plates were again washed and Fc-proteins were detected with anti-human- or anti-mouse-Fc-specific peroxidase-conjugated antibodies (Sigma). Colour reaction was done by addition of 100 μl per well of TMB substrate (Kem-En-Tec Diagnostics) and the absorbance at 450 nm and 630 nm was determined with an ELISA reader after addition of 25 μl of 25% H₂SO₄ as stop-solution. Values were calculated as 450 nm-630 nm with MS Excel.
The selectivity of TRAIL-Receptor 1 or TRAIL-Receptor 2 towards fusion proteins of SPD/ccSPD and TRAIL, TRAILR1 mut and TRAILR2mut was shown by Streptactin-ELISA. Therefore, TRAIL-SPD-fusion proteins in supernatants from transiently transfected HEK293 cells were immobilized on Streptactin coated microplates. Cell supernatant from untransfected cells served as negative control. Specifically bound proteins were detected with constant (A, B) or varying (C, D) concentrations of either TRAIL-Receptor 1-Fc or TRAIL-Receptor 2-Fc. As shown in (A), the ligand TRAILR1 mut fused to SPD variants is deteced by TRAIL-Receptor 1, whereas the ligand TRAILR2mut is not. As shown in (B), the ligand TRAILR2mut is preferentially detected by TRAIL-Receptor 2, whereas TRAILR1 mut- and TRAIL wild-type constructs are equally well detected. As shown in C, TRAIL-Receptor 1-Fc bound to TRAIL-R1mut-ASPD and TRAIL-ASPD equally well over the whole receptor titration range, whereas TRAIL-R2mut-ASPD is not detected. As shown in D, TRAIL-Receptor 2-Fc bound to TRAIL-R2mut-ASPD and TRAIL-ASPD equally well over the receptor titration range analyzed, whereas the signal for TRAIL-R1mut-ASPD decreased rapidely with decreasing concentrations of receptor.

TRAIL-Receptor 1-Fc [2] = biological target: T1, TRAIL-Receptor 1-Fc; assay: Streptactin-ELISA, LIGHT-ASPD immobilized via Strep-tag II
Protocol: as §1
Varying concentrations (0-10 microgram/ml) of affinity and SEC purified, trimeric LIGHT-ASPD were used for immobilized via the Strep-tag II on Streptactin-coated microplates. LIGHT-ASPD was then detected in a ELISA set-up using 100 ng/ml of Fc-fusion proteins of the receptors HVEM and TRAIL-Receptor 1, respectively. […]

T1 sequence (O00220 109-239 limits assumed): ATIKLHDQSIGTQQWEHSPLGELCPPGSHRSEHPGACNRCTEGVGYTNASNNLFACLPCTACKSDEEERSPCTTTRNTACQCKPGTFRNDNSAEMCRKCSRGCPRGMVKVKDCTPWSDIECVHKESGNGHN

| Binder | binding result (TRAIL-Receptor 1-Fc [1]) | binding result (TRAIL-Receptor 1-Fc [2]) |
| --- | --- | --- |
| TRAILR2mut-D-CCSPD (ligand, Used as HEK293 supernatant) QRVAAHITGTRGRSNTLSSPNSKNEKALGRKINSWESSRSGHSFLSNLHLRNGELVIHEKGFYYIYSQTQFKFREEIKENTKNDKQMVQYIYKYTSYPDPILLMKSARNSCWSKDAEYGLYSIYQGGIFELKENDRIFVSVTNERLLQMDHEASFFGAFLVGSGLPDVASLRQQVEALQGQVQHLQAAFSQYKKVELFPNGPSSSSSSAWSHPQFEK | no binding | – |
| LIGHT-ASPD (ligand, Human LIGHT-RBD (Glu91-Val240), A-linker, neck + CRD of human SP-D, linker element and Strep-tag II; Signal peptide 1-20 left out; Trimer by SEC, glycosylated; also called Sp-LIGHT-ASPD) EVNPAAHLTGANSSLTGSGGPLLWETQLGLAFLRGLSYHDGALVVTKAGYYYIYSKVQLGGVGCPLGLASTITHGLYKRTPRYPEELELLVSQQSPCGRATSSSRVWWDSSFLGGVVHLEAGEEVVVRVLDERLVRLRDGTRSYFGAFMVGSSGSSGSSGSGLPDVASLRQQVEALQGQVQHLQAAFSQYKKVELFPNGQSVGEKIFKTAGFVKPFTEAQLLCTQAGGQLASPRSAAENAALQQLVVAKNEAAFLSMTDSKTEGKFTYPTGESLVYSNWAPGEPNDDGGSEDCVEIFTNGKWNDRACGEKRLVVCEFGGSPSSSSSSAWSHPQFEK | – | no binding |
| TRAILR2mut-ASPD (ligand, TRAIL-Receptor 2 selective mutein of the human TRAIL-RBD, A-linker, neck + CRD of human SP-D, linker element and Strep-tag II; Signal peptide 1-20 left out; Homotrimer by SEC; also called Sp-TRAILR2mut-ASPD) QRVAAHITGTRGRSNTLSSPNSKNEKALGRKINSWESSRSGHSFLSNLHLRNGELVIHEKGFYYIYSQTQFKFREEIKENTKNDKQMVQYIYKYTSYPDPILLMKSARNSCWSKDAEYGLYSIYQGGIFELKENDRIFVSVTNERLLQMDHEASFFGAFLVGSSGSSGSSGSGLPDVASLRQQVEALQGQVQHLQAAFSQYKKVELFPNGQSVGEKIFKTAGFVKPFTEAQLLCTQAGGQLASPRSAAENAALQQLVVAKNEAAFLSMTDSKTEGKFTYPTGESLVYSNWAPGEPNDDGGSEDCVEIFTNGKWNDRACGEKRLVVCEFGGSPSSSSSSAWSHPQFEK | no binding | – |

Second part, the binder after the results:

| binding result (TRAIL-Receptor 1-Fc [1]) | binding result (TRAIL-Receptor 1-Fc [2]) | Binder |
| --- | --- | --- |
| no binding | – | TRAILR2mut-D-SPD (ligand, Used as HEK293 supernatant) QRVAAHITGTRGRSNTLSSPNSKNEKALGRKINSWESSRSGHSFLSNLHLRNGELVIHEKGFYYIYSQTQFKFREEIKENTKNDKQMVQYIYKYTSYPDPILLMKSARNSCWSKDAEYGLYSIYQGGIFELKENDRIFVSVTNERLLQMDHEASFFGAFLVGSGLPDVASLRQQVEALQGQVQHLQAAFSQYKKVELFPNGQSVGEKIFKTAGFVKPFTEAQLLCTQAGGQLASPRSAAENAALQQLVVAKNEAAFLSMTDSKTEGKFTYPTGESLVYSNWAPGEPNDDGGSEDCVEIFTNGKWNDRACGEKRLVVCEFGGSPSSSSSSAWSHPQFEK |
| no binding | – | TRAILR2mut-A-CCSPD (ligand, Used as HEK293 supernatant) QRVAAHITGTRGRSNTLSSPNSKNEKALGRKINSWESSRSGHSFLSNLHLRNGELVIHEKGFYYIYSQTQFKFREEIKENTKNDKQMVQYIYKYTSYPDPILLMKSARNSCWSKDAEYGLYSIYQGGIFELKENDRIFVSVTNERLLQMDHEASFFGAFLVGSSGSSGSSGSGLPDVASLRQQVEALQGQVQHLQAAFSQYKKVELFPNGPSSSSSSAWSHPQFEK |
